Data reported in patent publication US20110263824A1.

Target: human serum protein
Assay: human serum (1:800) adsorbed to TM2 variant-immobilized magnetic beads, HRP-labeled anti-human IgG detection

TM2 D40NR104E
Non-specific binding to serum protein (A450): 0.56 A450
